Test [1] deals with orphan G-protein coupled receptor G10d (human) (UniProt O15218). Kind of test: cell-based or functional assay.
Test [2] concerns the target type I angiotensin II receptor (AT1), bovine (bovine) (UniProt P25104). Kind of test: cell-based or functional assay.

Sequence of orphan G-protein coupled receptor G10d (human) (O15218 whole entry): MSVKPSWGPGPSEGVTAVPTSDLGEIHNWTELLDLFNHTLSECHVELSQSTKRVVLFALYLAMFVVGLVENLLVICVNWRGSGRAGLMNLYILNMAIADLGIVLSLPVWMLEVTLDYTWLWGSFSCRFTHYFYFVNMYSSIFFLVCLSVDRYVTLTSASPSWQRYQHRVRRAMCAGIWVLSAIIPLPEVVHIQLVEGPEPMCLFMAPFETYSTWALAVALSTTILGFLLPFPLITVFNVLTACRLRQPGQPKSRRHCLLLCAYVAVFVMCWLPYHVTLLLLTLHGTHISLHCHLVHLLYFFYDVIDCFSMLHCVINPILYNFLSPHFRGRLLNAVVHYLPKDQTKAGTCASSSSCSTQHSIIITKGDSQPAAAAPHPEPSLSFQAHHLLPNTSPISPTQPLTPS
Sequence of type I angiotensin II receptor (AT1), bovine (bovine) (P25104 whole entry): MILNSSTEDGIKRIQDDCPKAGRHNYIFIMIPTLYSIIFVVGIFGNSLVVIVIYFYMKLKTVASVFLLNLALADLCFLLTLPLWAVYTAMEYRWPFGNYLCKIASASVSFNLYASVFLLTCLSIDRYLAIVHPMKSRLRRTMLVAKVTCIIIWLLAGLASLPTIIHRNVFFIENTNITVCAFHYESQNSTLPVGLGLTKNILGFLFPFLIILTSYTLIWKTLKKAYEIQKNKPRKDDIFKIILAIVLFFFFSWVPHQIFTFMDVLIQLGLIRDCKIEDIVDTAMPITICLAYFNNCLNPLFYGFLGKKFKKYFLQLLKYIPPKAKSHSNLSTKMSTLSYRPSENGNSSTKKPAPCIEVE

Regarding “adrenocorticotropic hormone (ACTH) (from UniProt P01189 138-176) (peptide)”, the induction ratio of the reporter (Renilla reniformis luciferase, CRE), host GBCRC6 with pAGal9-G10d, 100 nmol/L of ACTH in test [1] worked out at 11 fold.

Turning to “α-melanocyte-stimulating hormone (α-MSH) (from UniProt P01189 138-150) (peptide)”, in test [1], the induction ratio of the reporter (Renilla reniformis luciferase, CRE), host GBCRC6 with pAGal9-G10d, 100 µmol/L of α-MSH as printed was determined as 10 fold.

Consider “human angiotensin II (manufactured by Bachem) (from UniProt P01019 25-476) (peptide)”, for which the firefly luciferase activity (CRE reporter), host GBCC13 with pAGal9-AT1, angiotensin II 100 nmol/L in test [2] stood at 85 fold.

These data come from patent US20070105096A1.
